Assay results published in US20240182536A1 (MURAL ONCOLOGY, published 2024).
Positions count from the first letter of the chain named. In names and notes the source's numbering stands.

T1: IL-18 receptors on HEK-Blue IL-18 reporter cells (UniProt Q13478 19-541; O95256 20-599, limits assumed)
T1 sequence (looked up) 1: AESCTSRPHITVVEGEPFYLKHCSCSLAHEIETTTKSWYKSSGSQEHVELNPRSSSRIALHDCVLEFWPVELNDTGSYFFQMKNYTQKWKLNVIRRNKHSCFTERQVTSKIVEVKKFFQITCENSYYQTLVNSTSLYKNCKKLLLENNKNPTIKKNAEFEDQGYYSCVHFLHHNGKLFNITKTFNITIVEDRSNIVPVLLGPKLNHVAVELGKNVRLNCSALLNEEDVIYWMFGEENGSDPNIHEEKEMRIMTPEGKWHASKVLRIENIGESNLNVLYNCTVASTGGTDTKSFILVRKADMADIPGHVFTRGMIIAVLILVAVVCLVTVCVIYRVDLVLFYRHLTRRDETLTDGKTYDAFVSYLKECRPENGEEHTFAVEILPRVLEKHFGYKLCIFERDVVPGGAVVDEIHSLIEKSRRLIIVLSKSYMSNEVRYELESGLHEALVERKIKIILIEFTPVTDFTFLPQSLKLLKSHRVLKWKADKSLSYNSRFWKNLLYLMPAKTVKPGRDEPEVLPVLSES
T1 sequence (looked up) 2: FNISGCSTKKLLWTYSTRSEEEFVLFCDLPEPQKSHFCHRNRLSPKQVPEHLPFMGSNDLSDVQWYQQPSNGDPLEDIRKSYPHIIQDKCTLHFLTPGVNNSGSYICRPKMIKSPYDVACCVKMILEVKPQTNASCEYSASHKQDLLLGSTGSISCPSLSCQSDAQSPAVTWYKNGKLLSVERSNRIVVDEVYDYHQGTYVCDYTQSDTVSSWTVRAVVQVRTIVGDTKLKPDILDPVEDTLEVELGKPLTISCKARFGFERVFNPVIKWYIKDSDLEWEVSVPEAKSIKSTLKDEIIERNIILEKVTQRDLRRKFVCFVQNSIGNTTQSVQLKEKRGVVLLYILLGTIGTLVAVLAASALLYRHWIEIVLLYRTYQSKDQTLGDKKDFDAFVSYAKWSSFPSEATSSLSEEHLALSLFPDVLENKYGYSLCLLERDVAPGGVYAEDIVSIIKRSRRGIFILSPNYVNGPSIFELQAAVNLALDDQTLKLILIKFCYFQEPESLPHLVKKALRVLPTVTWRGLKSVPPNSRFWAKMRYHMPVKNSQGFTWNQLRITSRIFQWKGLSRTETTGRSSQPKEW

T2: human IL-18 binding protein (human, UniProt O95998 31-194)
T2 sequence (looked up): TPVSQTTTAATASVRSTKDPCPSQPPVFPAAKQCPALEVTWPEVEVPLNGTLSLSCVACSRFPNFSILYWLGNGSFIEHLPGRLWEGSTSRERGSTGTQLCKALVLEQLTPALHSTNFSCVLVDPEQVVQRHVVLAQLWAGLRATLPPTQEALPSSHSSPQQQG

T3: IL-18 receptor (IL-18Rα and IL-18Rβ) (UniProt Q13478 19-541; O95256 20-599, limits assumed)
T3 sequence (looked up) 1: T1 sequence (looked up) 1
T3 sequence (looked up) 2: T1 sequence (looked up) 2

B1: yeast display IL-18 variant L5W, S7Y, K53H, S55M (ligand)
chain: YFGKWEYKLSVIRNLNDQVLFIDQGNRPLFEDMTDSDMRDNAPRTIFIISMYHDMQPRGMAVTISVKSEKISTLSSENKIISFKEMNPPDNIKDTKSDIIFFQRSVPGHDNKMQFESSSYEGYFLASEKERDLFKLILKKEDELGDRSIMFTVQNED
B2: yeast display IL-18 variant K53H, S55V (ligand)
chain: B1 chain with W5L, Y7S, M55V
B3: yeast display IL-18 variant K53S, S55F, R104K, H109Y (ligand)
chain: B1 chain with W5L, Y7S, H53S, M55F, R104K, H109Y
B4: yeast display IL-18 variant K53D, S55N (ligand)
chain: B1 chain with W5L, Y7S, H53D, M55N
B5: hIL18 (G3V, E6K, K53A, M60K)- KiH (Fc fusion)
chain: B1 chain with G3V, W5L, E6K, Y7S, H53A, M55S, M60K
B6: hIL18 (G3T, K53A, M60K) - KiH (Fc fusion)
chain: B1 chain with G3T, W5L, Y7S, H53A, M55S, M60K
B7: hIL18 (G3T, E6K, K53A, M60K) - KiH (Fc fusion)
chain: B1 chain with G3T, W5L, E6K, Y7S, H53A, M55S, M60K
B8: hIL18 (G3V, E6K, K53S, M60K) - KiH (Fc fusion)
chain: B1 chain with G3V, W5L, E6K, Y7S, H53S, M55S, M60K

Biological target: T1, IL-18 receptors on HEK-Blue IL-18 …
Assay: cell-based or functional assay

Point of comparison: B2, “HEK-Blue activity, No BP, DF-10000” value 1.6. Against it:
- B1 — lower, 0.5
- B3 — lower, 0.43
- B4 — lower, 0.45

Point of comparison: B3, “HEK-Blue activity, No BP, DF-100,000” value 0.11. Against it:
- B1 — higher, 0.16
- B2 — higher, 0.94
- B4 — higher, 0.13

Point of comparison: B3, “HEK-Blue activity, No BP, DF-1,000,000” value 0.09. Against it:
- B1 — higher, 0.16
- B2 — higher, 0.33
- B4 — the same, 0.09

Biological target: T2, human IL-18 binding protein
Assay: cell-based or functional assay

Point of comparison: B4, “HEK-Blue activity, +100 nM BP, DF-10000” value 0.47. Against it:
- B1 — lower, 0.12
- B2 — higher, 1.05
- B3 — lower, 0.14

Point of comparison: B3, “HEK-Blue activity, +100 nM BP, DF-100,000” value 0.09. Against it:
- B1 — higher, 0.12
- B2 — higher, 0.34
- B4 — higher, 0.12

Point of comparison: B1, “HEK-Blue activity, +100 nM BP, DF-1,000,000” value 0.13. Against it:
- B2 — higher, 0.14
- B3 — lower, 0.09
- B4 — lower, 0.09

Point of comparison: B1, “Ratio (-BP/+BP), DF-10000” value 4.04. Against it:
- B2 — lower, 1.53
- B3 — lower, 3.08
- B4 — lower, 0.95

Point of comparison: B3, “Ratio (-BP/+BP), DF-100,000” value 1.18. Against it:
- B1 — higher, 1.41
- B2 — higher, 2.79
- B4 — lower, 1.05

Point of comparison: B2, “Ratio (-BP/+BP), DF-1,000,000” value 2.31. Against it:
- B1 — lower, 1.24
- B3 — lower, 0.95
- B4 — lower, 1

Biological target: T3, IL-18 receptor (IL-18Rα and IL-18Rβ)
Assay: cell-based or functional assay

Point of comparison: B8, “EC50 (pM), PBMC IFN gamma assay, average” value 16.8 pM. Against it:
- B5 — lower, 5.46 pM
- B6 — higher, 195 pM
- B7 — lower, 16 pM

Point of comparison: B7, “EC50 (pM), PBMC IFN gamma assay, run 1” value 13.3 pM. Against it:
- B5 — lower, 8.83 pM
- B6 — higher, 209 pM
- B8 — higher, 17.8 pM

Point of comparison: B7, “EC50 (pM), PBMC IFN gamma assay, run 2” value 14 pM. Against it:
- B5 — lower, 3.21 pM
- B6 — higher, 214 pM
- B8 — higher, 21.6 pM

Point of comparison: B5, “EC50 (pM), PBMC IFN gamma assay, run 3” value 4.33 pM. Against it:
- B6 — higher, 162 pM
- B7 — higher, 20.7 pM
- B8 — higher, 10.9 pM

Point of comparison: B7, “PBMC IFN gamma EC50 relative to WT-IL18, average” value 0.11. Against it:
- B5 — lower, 0.03
- B6 — higher, 1.3
- B8 — higher, 0.12

Point of comparison: B6, “PBMC IFN gamma EC50 relative to WT-IL18, run 1” value 0.87. Against it:
- B5 — lower, 0.04
- B7 — lower, 0.06
- B8 — lower, 0.07

Point of comparison: B8, “PBMC IFN gamma EC50 relative to WT-IL18, run 2” value 0.21. Against it:
- B5 — lower, 0.03
- B6 — higher, 2.04
- B7 — lower, 0.13

Point of comparison: B5, “PBMC IFN gamma EC50 relative to WT-IL18, run 3” value 0.03. Against it:
- B6 — higher, 1
- B7 — higher, 0.13
- B8 — higher, 0.07
